One may read the Kd as the constant that tells how readily two partners part at equilibrium. A low value points to tighter binding. One may read the koff as the first-order rate constant of dissociation. One may read the kon as the second-order rate constant of association. A high value points to faster complex formation.

Among the data in patent US20100260668A1 (published 2010) are Kd, koff and kon values, retold here.

The assay has as its target T1, DLL4 (DLL ECD His tag, R&D 1506-D4-050) (UniProt Q9NR61 27-529).
T1 construct: extracellular domain; bought
Kind of assay: BIACORE (SPR), DVD-Ig against DLL4.

B1: DVD445 (bispecific antibody, human IgG1, kappa)
heavy: not shown
light: DIVMTQSPDSLAVSLGERATISCRASESVDNYGISFMKWFQQKPGQPPKLLIYAASNQGSGVPDRFSGSGSGTDFTLTISSLQAEDVAVYYCQQSKEVPWTFGGGTKVEIKRTVAAPDIQMTQSPSSLSASVGDRVTITCRASQVIRRSLAWYQQKPGKAPKLLIYAASNLASGVPSRFSGSGSGTDFTLTISSLQPEDFATYYCQQSNTSPLTFGQGTKVEIKRTVAAPSVFIFPPSDEQLKSGTASVVCLLNNFYPREAKVQWKVDNALQSGNSQESVTEQDSKDSTYSLSSTLTLSKADYEKHKVYACEVTHQGLSSPVTKSFNRGEC
notes: DVD-Ig; N-term; VD DLL4 (AB069), C-term; VD VEGF (AB071); HC linker short, LC linker short; also called DVD-Ig DVD445; DVD445H
Molecule B1 yielded a Kd of 5.01 nM, a koff of 0.000646 s⁻¹ and an association rate constant (kon) of 129000 M⁻¹ s⁻¹.

B2: DVD457 (bispecific antibody, human IgG1, kappa, L234A L235A)
heavy: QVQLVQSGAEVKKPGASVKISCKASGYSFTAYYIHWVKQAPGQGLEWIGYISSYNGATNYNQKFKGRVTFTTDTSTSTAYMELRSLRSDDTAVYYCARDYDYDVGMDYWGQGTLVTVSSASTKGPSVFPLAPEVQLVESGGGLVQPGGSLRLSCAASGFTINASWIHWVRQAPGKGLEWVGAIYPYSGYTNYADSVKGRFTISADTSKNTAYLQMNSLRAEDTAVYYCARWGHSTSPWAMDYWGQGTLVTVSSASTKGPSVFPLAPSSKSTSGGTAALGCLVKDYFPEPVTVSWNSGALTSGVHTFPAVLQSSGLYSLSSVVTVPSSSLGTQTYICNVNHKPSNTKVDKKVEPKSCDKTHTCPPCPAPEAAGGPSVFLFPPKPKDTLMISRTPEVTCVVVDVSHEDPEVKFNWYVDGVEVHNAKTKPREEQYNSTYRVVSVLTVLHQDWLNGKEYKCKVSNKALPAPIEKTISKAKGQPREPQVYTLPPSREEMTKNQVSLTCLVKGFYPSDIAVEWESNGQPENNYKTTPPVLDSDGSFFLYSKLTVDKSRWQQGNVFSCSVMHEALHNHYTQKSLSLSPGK
light: B1 light
notes: DVD-Ig; N-term; VD DLL4 (AB069), C-term; VD VEGF (AB071); HC linker long, LC linker short; also called DVD-Ig DVD457; DVD457H
Take B2: the Kd was determined as 4.82 nM, the off-rate constant (koff) stood at 0.000578 s⁻¹ and the kon came to 120000 M⁻¹ s⁻¹.

B3: DVD506 (bispecific antibody, human IgG1, kappa)
heavy: not shown
light: DIQMTQSPSSLSASVGDRVTITCSASQDISNYLNWYQQKPGKAPKVLIYFTSSLHSGVPSRFSGSGSGTDFTLTISSLQPEDFATYYCQQYSTVPWTFGQGTKVEIKRTVAAPSVFIFPPDIQMTQSSSYLSVSLGGRVTITCKASDHINNWLAWYQQKPGNAPRLLISGATSLETGVPSRFSGSGSGKDYTLSITSLQTEDVATYYCQQYWSIPLTFGAGTKLELKRTVAAPSVFIFPPSDEQLKSGTASVVCLLNNFYPREAKVQWKVDNALQSGNSQESVTEQDSKDSTYSLSSTLTLSKADYEKHKVYACEVTHQGLSSPVTKSFNRGEC
notes: DVD-Ig; N-term; VD VEGF (AB014), C-term; VD DLL4 (AB072); HC linker short, LC linker long; also called DVD-Ig DVD506; DVD506H
In turn, B3 showed a dissociation constant (Kd) of 1.47 nM, an off-rate constant (koff) of 0.000104 s⁻¹ and an on-rate constant (kon) of 70700 M⁻¹ s⁻¹.

B4: DVD451 (bispecific antibody, human IgG1, kappa, L234A L235A)
heavy: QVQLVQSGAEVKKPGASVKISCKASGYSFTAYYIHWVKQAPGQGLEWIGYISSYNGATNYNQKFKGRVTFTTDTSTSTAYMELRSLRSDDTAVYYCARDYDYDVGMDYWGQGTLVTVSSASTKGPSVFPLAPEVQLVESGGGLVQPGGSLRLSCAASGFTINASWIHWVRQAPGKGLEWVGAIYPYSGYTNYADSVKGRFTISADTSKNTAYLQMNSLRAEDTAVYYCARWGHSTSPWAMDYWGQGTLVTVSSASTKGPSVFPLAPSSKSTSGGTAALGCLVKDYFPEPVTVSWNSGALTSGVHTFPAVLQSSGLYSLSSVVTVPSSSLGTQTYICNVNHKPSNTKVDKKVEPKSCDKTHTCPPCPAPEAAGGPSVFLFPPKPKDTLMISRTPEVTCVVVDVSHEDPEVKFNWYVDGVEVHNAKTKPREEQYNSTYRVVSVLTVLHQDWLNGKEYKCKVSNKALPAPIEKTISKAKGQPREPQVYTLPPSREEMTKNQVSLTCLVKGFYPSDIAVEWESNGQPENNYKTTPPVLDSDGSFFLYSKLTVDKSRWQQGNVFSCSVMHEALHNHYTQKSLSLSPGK
light: DIVMTQSPDSLAVSLGERATISCRASESVDNYGISFMKWFQQKPGQPPKLLIYAASNQGSGVPDRFSGSGSGTDFTLTISSLQAEDVAVYYCQQSKEVPWTFGGGTKVEIKRTVAAPSVFIFPPDIQMTQSPSSLSASVGDRVTITCRASQVIRRSLAWYQQKPGKAPKLLIYAASNLASGVPSRFSGSGSGTDFTLTISSLQPEDFATYYCQQSNTSPLTFGQGTKVEIKRTVAAPSVFIFPPSDEQLKSGTASVVCLLNNFYPREAKVQWKVDNALQSGNSQESVTEQDSKDSTYSLSSTLTLSKADYEKHKVYACEVTHQGLSSPVTKSFNRGEC
notes: DVD-Ig; N-term; VD DLL4 (AB069), C-term; VD VEGF (AB071); HC linker long, LC linker long; also called DVD-Ig DVD451; DVD451H
B4 gave a dissociation constant (Kd) of 14 nM, a koff of 0.001 s⁻¹ and an on-rate constant (kon) of 71700 M⁻¹ s⁻¹.

B5: DVD463 (bispecific antibody, human IgG1, kappa)
heavy: not shown
light: B4 light
notes: DVD-Ig; N-term; VD DLL4 (AB069), C-term; VD VEGF (AB071); HC linker short, LC linker long; also called DVD-Ig DVD463; DVD463H
The molecule B5 registered a Kd of 3.82 nM, a koff of 0.000472 s⁻¹ and a kon of 123000 M⁻¹ s⁻¹.

B6: DVD515 (bispecific antibody, human IgG1, kappa)
heavy: not shown
light: QAVVTQESALTTSPGETVTLTCRSSTGAVTTSNYANWVQEKPDHLFTGLIGGTNNRAPGVPARFSGSLIGDKAALTITGAQTEDEAIYFCALWYSNHWVFGGGTKLTVLGQPKAAPDIQMTQSPSSLSASVGDRVTITCRASQVIRRSLAWYQQKPGKAPKLLIYAASNLASGVPSRFSGSGSGTDFTLTISSLQPEDFATYYCQQSNTSPLTFGQGTKVEIKRTVAAPSVFIFPPSDEQLKSGTASVVCLLNNFYPREAKVQWKVDNALQSGNSQESVTEQDSKDSTYSLSSTLTLSKADYEKHKVYACEVTHQGLSSPVTKSFNRGEC
notes: DVD-Ig; N-term; VD DLL4 (AB073), C-term; VD VEGF (AB071); HC linker short, LC linker short; also called DVD-Ig DVD515; DVD515H
Consider B6, for which the dissociation constant (Kd) was determined as 1.51 nM, the koff came out at 0.0016 s⁻¹ and the on-rate (kon) worked out at 1.06e+06 M⁻¹ s⁻¹.

B7: DVD527 (bispecific antibody, human IgG1, kappa)
heavy: not shown
light: B6 light
notes: DVD-Ig; N-term; VD DLL4 (AB073), C-term; VD VEGF (AB071); HC linker long, LC linker short; also called DVD-Ig DVD527; DVD527H
Molecule B7 displayed a Kd of 1.9 nM, a dissociation rate constant (koff) of 0.00109 s⁻¹ and a kon of 574000 M⁻¹ s⁻¹.

B8: DVD491 (bispecific antibody, human IgG1, kappa)
heavy: not shown
light: DIQMTQSSSYLSVSLGGRVTITCKASDHINNWLAWYQQKPGNAPRLLISGATSLETGVPSRFSGSGSGKDYTLSITSLQTEDVATYYCQQYWSIPLTFGAGTKLELKRTVAAPDIQMTQSPSSLSASVGDRVTITCRASQVIRRSLAWYQQKPGKAPKLLIYAASNLASGVPSRFSGSGSGTDFTLTISSLQPEDFATYYCQQSNTSPLTFGQGTKVEIKRTVAAPSVFIFPPSDEQLKSGTASVVCLLNNFYPREAKVQWKVDNALQSGNSQESVTEQDSKDSTYSLSSTLTLSKADYEKHKVYACEVTHQGLSSPVTKSFNRGEC
notes: DVD-Ig; N-term; VD DLL4 (AB072), C-term; VD VEGF (AB071); HC linker short, LC linker short; also called DVD-Ig DVD491; DVD491H
Molecule B8 returned a Kd of 0.237 nM, a koff of 6.35e-05 s⁻¹ and a kon of 267000 M⁻¹ s⁻¹.

B9: DVD473 (bispecific antibody, human IgG1, kappa)
heavy: not shown
light: DIQMTQSPSSLSASVGDRVTITCRASQDVSTAVAWYQQKPGKAPKLLIYSASFLYSGVPSRFSGSGSGTDFTLTISSLQPEDFATTYYCQQSYTGTVTFGQGTKVEIKRTVAAPSVFIFPPDIQMTQSPSSLSASVGDRVTITCRASQVIRRSLAWYQQKPGKAPKLLIYAASNLASGVPSRFSGSGSGTDFTLTISSLQPEDFATYYCQQSNTSPLTFGQGTKVEIKRTVAAPSVFIFPPSDEQLKSGTASVVCLLNNFYPREAKVQWKVDNALQSGNSQESVTEQDSKDSTYSLSSTLTLSKADYEKHKVYACEVTHQGLSSPVTKSFNRGEC
notes: DVD-Ig; N-term; VD DLL4 (AB015), C-term; VD VEGF (AB071); HC linker long, LC linker long; also called DVD-Ig DVD473; DVD473H
B9 gave a dissociation constant (Kd) of 0.716 nM, an off-rate (koff) of 0.000161 s⁻¹ and a kon of 226000 M⁻¹ s⁻¹.

B10: DVD485 (bispecific antibody, human IgG1, kappa)
heavy: not shown
light: B9 light
notes: DVD-Ig; N-term; VD DLL4 (AB015), C-term; VD VEGF (AB071); HC linker short, LC linker long; also called DVD-Ig DVD485; DVD485H
Molecule B10 displayed a Kd of 1.16 nM.

B11: DVD467 (bispecific antibody, human IgG1, kappa)
heavy: not shown
light: DIQMTQSPSSLSASVGDRVTITCRASQDVSTAVAWYQQKPGKAPKLLIYSASFLYSGVPSRFSGSGSGTDFTLTISSLQPEDFATTYYCQQSYTGTVTFGQGTKVEIKRTVAAPDIQMTQSPSSLSASVGDRVTITCRASQVIRRSLAWYQQKPGKAPKLLIYAASNLASGVPSRFSGSGSGTDFTLTISSLQPEDFATYYCQQSNTSPLTFGQGTKVEIKRTVAAPSVFIFPPSDEQLKSGTASVVCLLNNFYPREAKVQWKVDNALQSGNSQESVTEQDSKDSTYSLSSTLTLSKADYEKHKVYACEVTHQGLSSPVTKSFNRGEC
notes: DVD-Ig; N-term; VD DLL4 (AB015), C-term; VD VEGF (AB071); HC linker short, LC linker short; 2'; 3'; also called DVD-Ig DVD467; DVD467H
B11 came in with an equilibrium dissociation constant (Kd) of 0.302 nM, a koff of 0.000177 s⁻¹ and an on-rate (kon) of 585000 M⁻¹ s⁻¹.

B12: DVD479 (bispecific antibody, human IgG1, kappa)
heavy: not shown
light: B11 light
notes: DVD-Ig; N-term; VD DLL4 (AB015), C-term; VD VEGF (AB071); HC linker long, LC linker short; also called DVD-Ig DVD479; DVD479H
Take B12: the Kd came out at 0.441 nM, the koff came to 0.000174 s⁻¹ and the on-rate (kon) was 395000 M⁻¹ s⁻¹.

B13: DVD521 (bispecific antibody, human IgG1, kappa, lambda, L234A L235A)
heavy: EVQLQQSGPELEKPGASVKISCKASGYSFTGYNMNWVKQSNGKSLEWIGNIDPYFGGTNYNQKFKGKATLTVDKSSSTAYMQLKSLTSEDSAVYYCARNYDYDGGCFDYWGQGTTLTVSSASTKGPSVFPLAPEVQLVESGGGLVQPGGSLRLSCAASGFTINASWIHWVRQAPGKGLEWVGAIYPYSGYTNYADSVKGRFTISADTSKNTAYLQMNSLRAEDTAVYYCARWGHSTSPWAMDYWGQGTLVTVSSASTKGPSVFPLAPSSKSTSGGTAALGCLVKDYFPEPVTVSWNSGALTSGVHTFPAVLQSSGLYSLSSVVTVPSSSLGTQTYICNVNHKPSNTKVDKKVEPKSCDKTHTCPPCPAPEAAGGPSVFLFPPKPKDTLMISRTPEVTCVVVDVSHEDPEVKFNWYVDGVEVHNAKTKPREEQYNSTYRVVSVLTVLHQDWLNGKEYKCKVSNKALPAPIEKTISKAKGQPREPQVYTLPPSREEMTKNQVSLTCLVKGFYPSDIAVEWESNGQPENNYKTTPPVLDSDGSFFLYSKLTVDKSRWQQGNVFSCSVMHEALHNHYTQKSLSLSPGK
light: QAVVTQESALTTSPGETVTLTCRSSTGAVTTSNYANWVQEKPDHLFTGLIGGTNNRAPGVPARFSGSLIGDKAALTITGAQTEDEAIYFCALWYSNHWVFGGGTKLTVLGQPKAAPSVTLFPPDIQMTQSPSSLSASVGDRVTITCRASQVIRRSLAWYQQKPGKAPKLLIYAASNLASGVPSRFSGSGSGTDFTLTISSLQPEDFATYYCQQSNTSPLTFGQGTKVEIKRTVAAPSVFIFPPSDEQLKSGTASVVCLLNNFYPREAKVQWKVDNALQSGNSQESVTEQDSKDSTYSLSSTLTLSKADYEKHKVYACEVTHQGLSSPVTKSFNRGEC
notes: DVD-Ig; N-term; VD DLL4 (AB073), C-term; VD VEGF (AB071); HC linker long, LC linker long; also called DVD-Ig DVD521; DVD521H
B13 returned a Kd of 1.77 nM, a koff of 0.00168 s⁻¹ and a kon of 947000 M⁻¹ s⁻¹.

B14: DVD533 (bispecific antibody, human IgG1, kappa, lambda, L234A L235A)
heavy: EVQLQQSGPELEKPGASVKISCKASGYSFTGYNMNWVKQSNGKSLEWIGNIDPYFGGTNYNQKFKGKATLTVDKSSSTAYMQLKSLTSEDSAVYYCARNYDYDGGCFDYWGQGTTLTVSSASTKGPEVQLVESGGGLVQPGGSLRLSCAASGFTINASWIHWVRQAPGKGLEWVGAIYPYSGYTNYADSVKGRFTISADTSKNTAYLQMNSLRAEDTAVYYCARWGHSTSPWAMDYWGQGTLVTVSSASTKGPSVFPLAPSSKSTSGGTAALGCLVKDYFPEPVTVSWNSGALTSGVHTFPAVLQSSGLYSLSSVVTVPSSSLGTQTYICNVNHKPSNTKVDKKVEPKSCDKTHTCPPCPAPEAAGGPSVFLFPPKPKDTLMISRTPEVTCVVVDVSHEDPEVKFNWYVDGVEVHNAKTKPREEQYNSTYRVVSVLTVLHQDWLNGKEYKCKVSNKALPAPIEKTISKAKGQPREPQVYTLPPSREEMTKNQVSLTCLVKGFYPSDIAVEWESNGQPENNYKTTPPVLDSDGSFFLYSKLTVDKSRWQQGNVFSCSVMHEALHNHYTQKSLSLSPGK
light: B13 light
notes: DVD-Ig; N-term; VD DLL4 (AB073), C-term; VD VEGF (AB071); HC linker short, LC linker long; also called DVD-Ig DVD533; DVD533H
Regarding B14, binding was characterised by a dissociation constant (Kd) of 2.22 nM, the dissociation rate constant (koff) is 0.00133 s⁻¹ and the kon is 598000 M⁻¹ s⁻¹.
